Test results taken from publication PMC10371798, “Protein–protein interactions between tenascin-R and RPTPζ/phosphacan are critical to maintain the architecture of perineuronal nets” (The Journal of Biological Chemistry, 2023).
Values joined by “and” are separate entries in the source; they are usually repeats but may differ in a detail not shown here. Equal values may be shown once.

Columns and labels:
Details in all cases: both partners purified
[1] = target: T1, Fg domain of human tenascin-C (amino acid residues 1975-2201) (human, UniProt P24821 1975-2201); test: BLI; biotinylated FN domain of RPTPζ (250 nM) immobilised on streptavidin tips; Fg domain in solution; room temperature; 150 mM NaCl, 10 mM Na-Hepes pH 7.5, 1 mg/ml BSA, 0.02% Tween-20, 5 mM CaCl2; KD from the signal at equilibrium
T1 construct: tenascin-C (TNC), human, fibrinogen-like (Fg) domain, residues 1975-2201; also called TNC(Fg); WT TNC; source: E. coli Origami 2(DE3), purified (Ni Sepharose, 3C cleavage, HiTrap Heparin, Superdex 200)
T1 sequence (looked up): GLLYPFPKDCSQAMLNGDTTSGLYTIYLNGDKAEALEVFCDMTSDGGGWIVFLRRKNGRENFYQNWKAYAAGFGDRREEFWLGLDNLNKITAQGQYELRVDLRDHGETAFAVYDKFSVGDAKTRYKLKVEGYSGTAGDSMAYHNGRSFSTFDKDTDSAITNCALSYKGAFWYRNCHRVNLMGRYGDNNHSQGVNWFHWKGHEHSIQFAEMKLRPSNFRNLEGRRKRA

[2] = target: T2, Fg domain of human tenascin-R (amino acid residues 1129-1358) (human, UniProt Q92752 1129-1358); test: as above
T2 construct: tenascin-R (TNR), human, fibrinogen-like (Fg) domain, residues 1129-1358; also called TNR(Fg); source: E. coli Origami 2(DE3), purified (Ni Sepharose, 3C cleavage, HiTrap Heparin, Superdex 200)
T2 sequence (looked up): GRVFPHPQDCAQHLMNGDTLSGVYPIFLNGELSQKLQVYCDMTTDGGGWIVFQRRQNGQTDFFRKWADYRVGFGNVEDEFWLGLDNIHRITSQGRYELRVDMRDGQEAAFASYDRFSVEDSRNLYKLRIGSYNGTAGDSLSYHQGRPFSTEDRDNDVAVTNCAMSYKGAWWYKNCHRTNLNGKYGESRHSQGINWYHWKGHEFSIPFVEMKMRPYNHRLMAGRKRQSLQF

[3] = target: T1, Fg domain of human tenascin-C (amino …); test: BLI; biotinylated FN domain of RPTPζ (250 nM) immobilised on streptavidin tips; Fg domain in solution; room temperature; 150 mM NaCl, 10 mM Na-Hepes pH 7.5, 1 mg/ml BSA, 0.02% Tween-20, 5 mM EDTA; KD from the signal at equilibrium
[4] = target: T2, Fg domain of human tenascin-R (amino …); test: as above
[5] = target: T3, CA-FN domains of human RPTPζ (amino acid residues 34-410) fused to human IgG1 Fc, purified (human, UniProt P23471 34-410); test: AlphaScreen or HTRF; competition format: biotinylated human TNC(Fg) (5 nM) on streptavidin donor beads, purified RPTPζ(CA-FN)-Fc (0.5 nM) on protein A acceptor beads, untagged Fg domains at varying concentrations; room temperature; one-site competition fit
T3 construct: RPTPζ, human, carbonic anhydrase-like and FN domains (CA-FN), residues 34-410; also called RPTPζ(CA-FN); IgG Fc fusion of RPTPζ(CA-FN)

[6] = target: T4, CA-FN domains of human RPTPζ fused to human IgG1 Fc (human, UniProt P23471 34-410); test: AlphaScreen or HTRF; competition: RPTPζ(CA-FN)-Fc (0.5 nM) on protein A acceptor beads, biotinylated TNC(Fg) (5 nM) on streptavidin donor beads, untagged Fg domain as inhibitor in a dilution series; room temperature; one-site competition fit
T4 construct: carbonic anhydrase-like and fibronectin type III (CA-FN) domains of human RPTPζ, amino acid residues 34-410; also called RPTPζ(CA-FN)-Fc; RPTPζ(CA-FN)

[7] = target: T5, Fg domain of human tenascin-C (human, UniProt P24821 1975-2201); test: BLI; biotinylated RPTPζ(FN) on streptavidin tips, Fg domain as analyte; room temperature, 150 mM NaCl, 10 mM Na-Hepes pH 7.5, 1 mg/ml BSA, 0.02% Tween-20, 5 mM CaCl2; dose-response analysis of the signal at equilibrium
T5 construct: C-terminal fibrinogen-like (Fg) domain of human tenascin-C, amino acid residues 1975-2201; also called HTNC(Fg); TNC(Fg); source: E. coli Origami 2(DE3), purified (Ni Sepharose, HRV 3C cleavage, HiTrap Heparin, Superdex 200)
T5 sequence (looked up): T1 sequence (looked up)

[8] = target: T6, Fg domain of human tenascin-R (human, UniProt Q92752 1129-1358); test: as above
T6 construct: C-terminal fibrinogen-like (Fg) domain of human tenascin-R, amino acid residues 1129-1358; also called HTNR(Fg); TNR(Fg); source: E. coli Origami 2(DE3), purified (Ni Sepharose, HRV 3C cleavage, HiTrap Heparin, Superdex 200)
T6 sequence (looked up): T2 sequence (looked up)

[9] = target: T5, Fg domain of human tenascin-C; test: BLI; biotinylated RPTPζ(FN) on streptavidin tips, Fg domain as analyte; room temperature, 150 mM NaCl, 10 mM Na-Hepes pH 7.5, 1 mg/ml BSA, 0.02% Tween-20, 5 mM CaCl2; kinetic analysis, sensorgrams fitted to a 1:1 binding model
[10] = target: T6, Fg domain of human tenascin-R; test: as above

B1: biotinylated FN domain of human RPTPζ (domain or fragment)
chain: not shown
modifications: biotin (EZ-Link NHS-PEG4-Biotin, 1:1 molar ratio)
Question: B1 was tested. Which Kd [1] did it give?
Answer: 187 nM

Question: And the koff [1]?
Answer: > 0.01 s⁻¹

Question: What about the Kd [2] of the same binder?
Answer: 112 nM

Question: And the koff [2]?
Answer: > 0.01 s⁻¹

Question: And the Kd [3]?
Answer: 9900 nM

Question: What about the Kd [4] of the same binder?
Answer: 712 nM

B2: biotinylated Fg domain of human tenascin-C with a cysteine residue added at the N-terminus (domain or fragment)
chain: CGLLYPFPKDCSQAMLNGDTTSGLYTIYLNGDKAEALEVFCDMTSDGGGWIVFLRRKNGRENFYQNWKAYAAGFGDRREEFWLGLDNLNKITAQGQYELRVDLRDHGETAFAVYDKFSVGDAKTRYKLKVEGYSGTAGDSMAYHNGRSFSTFDKDTDSAITNCALSYKGAFWYRNCHRVNLMGRYGDNNHSQGVNWFHWKGHEHSIQFAEMKLRPSNFRNLEGRRKRA
modifications: biotin (EZ-Link Maleimide-PEG2-Biotin) on the added N-terminal cysteine
notes: cysteine residue added at the N-terminus of the Fg domain by site-directed mutagenesis; tenascin-C (TNC), human, fibrinogen-like (Fg) domain, residues 1975-2201; also called biotinylated human TNC(Fg); biotinylated TNC(Fg); source: E. coli Origami 2(DE3), purified, biotinylated, then gel filtration
Question: Does B2 bind [5]?
Answer: binds

B3: biotinylated Fg domain of human tenascin-C with an added N-terminal cysteine (domain or fragment)
chain: B2 chain
modifications: biotin (EZ-Link Maleimide-PEG2-Biotin) on the cysteine added at the N-terminus
notes: a cysteine residue added at the N-terminus of the Fg domain by site-directed mutagenesis; C-terminal fibrinogen-like (Fg) domain of human tenascin-C, amino acid residues 1975-2201; also called biotin-HTNC(Fg); biotinylated human TNC(Fg); source: E. coli Origami 2(DE3), purified, biotinylated, then gel filtration
Question: Does B3 bind [6]?
Answer: binds

B4: biotinylated FN domain of human RPTPζ (domain or fragment)
chain: not shown
modifications: biotin (EZ-Link NHS-PEG4-Biotin, 1:1 molar ratio)
Question: Which Kd [7] does the source give for B4 here?
Answer: 242 nM and 191 nM and 127 nM and 187 nM

Question: And the Kd [8]?
Answer: 114 nM and 117 nM and 113 nM and 104 nM

Question: What about the Kd [9] of the same binder?
Answer: 150 nM and 170 nM and 189 nM and 173 nM

Question: And the Kd [10]?
Answer: 79 nM and 80 nM and 78 nM
